Source: patent US20240352438A1, “MEANS AND METHODS FOR DETOXIFYING OCHRATOXIN A” (DSM Austria GmbH, priority 2021, published 2024)

Key:
[1] = OTA detoxification activity assay (specific activity, fluorescence reduction ex/em 390/450 nm); format: biochemical; conditions: 37° C., 200 ng/mL OTA, 100 mM sodium phosphate buffer
Summary of the method: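 Recombinant enzyme preparation with 200 ng/mL OTA in 100 mM sodium phosphate, at pH 6.0 and pH 7.5, 37° C. Degradation followed as the fall in fluorescence at ex/em 390/450 nm. Specific activity taken from the initial linear slope; one unit degrades 1 μmol OTA per min at a starting OTA of […].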

[2] = Thermostability assay: residual OTA detoxification activity after 10 min incubation at 45-99° C. (T50); format: physicochemical; conditions: for T50 (temperature range in which 50% of the initial activity was lost after the incubation): 0.1 mg/mL in 20 mM Tris-HCl buffer pH 7.5; for T50 (temperature at which 50% of the initial activity was maintained): 0.1 mg/mL protein in 20 mM Tris-HCl pH 7.5, residual OTA detoxification activity relative to 4° C. reference aliquot
Experimental: Stability was determined in terms of thermostability. Notwithstanding, a person having skill in the art is aware that stability towards high temperature (e.g. more than 30° C.) often correlates with stability towards other non-standard conditions such as stability towards acidic or basic pH (e.g. below pH 6.5 or above pH 7.5, respectively), towards elevated salt concentrations, organic solvents or drying.
To determine the kinetic stability of the produced enzymes, thermostability assays were performed. To this end, purified protein samples were diluted to a protein concentration of 0.1 mg/mL in 20 mM Tris-HCl buffer pH 7.5 and aliquots were incubated in a thermocycler for 10 min at either 45, 55, 65, 75, 80, 85, 90, 95 or 99° C. After this incubation, the aliquots were stored at 4° C. until further analysis. A reference aliquot was stored at 4° C. throughout the incubation. Subsequently, all aliquots were assayed for residual OTA detoxification activity using the assay described in Example 3. Residual enzyme activities were calculated relative to the reference aliquot. The temperature range in which 50% of the initial activity was lost after the incubation (T50), in relation to the reference aliquot was determined.

Molecule | Specific OTA detoxification activities in U/g at pH 6.0 [1] [U/g] | Specific OTA detoxification activities in U/g at pH 7.5 [1] | T50 (temperature range in which 50% of the initial activity was lost after the incubation) [2] | T50 (temperature at which 50% of the initial activity was maintained) [2]
SEQ ID NO: 348: another exemplary OTA-hydrolyzing polypeptide, amidohydrolase family; mature, processed species of SEQ ID NO: 349 (protein, exemplary polypeptide) RAHIVEPVAIKAKRVFTGVTGAVIENGVVIVDDKGRIAAISRVVPKGAKVIDLGDATLLPGFIDAHVHLSGEMSDNWYKDFRDRMLRFPAEQAHYAARNAKKTLMAGFTTVRDVGSADWQASALRNAVNAGVIVGPRILASNYAIGATGGHGDGTPFPPDRVAPDGPLKGVCNGADQCRAAVRYQIKYGADVIKFMPSGGVLSLSDPVDVPELTQDEINAIISEAHAWHRKVAAHAHGDEAARMAVKAGVDSIEHGTFLTDETLKQMKKQGTYLVATLFAGEWVGMKADNYPPAVAEKARAAAAQMQRMFARAVKIGVPIAFGTDAGVEPHGLNAHEFSLMVKNGMSPKAALLAATREAAKLLGVIDRTGTLEPGKAADMVAVRGDPLADIKATEQVIFVMKGGKIYRNEVE | ~19 | approximately 32 U/g | 85-90 °C | –
21 (protein, polypeptide 7) MTTPTRILTAVLALLASNACAADATPSTPHTVVLRAARMFDGASGKLVERPQLTIVGNKIVRIAQADKADVPAGAEVIDLGDATLLPGFIDAHVHLSGQGSDNWYGDFFDNMMRFPAEQALYGAYYARITLEAGFTSVRDVGSTDWVALGLRNAIDAGKVPGPRMLVSNYAVGSTGGHADQDPIPPHKLPLAGPLQGVCNGPEECRAAVRYQIKYGANVIKFMPSGGVLSLSDPVDAPELSQDEMNAVIGESHAWGRKVAAHAHGDKAAKMAVAAGVDSIEHGSFIEDDTLRAMKAKGVYLVPTISAIAHVEEKIATFPPVIAEKGRAAAAHLRQTFRHAVQIGVPIALGTDAGVGAHGTNAREFRYMVENGLSPAQSLLAGTSNAARLLGTIDRVGTLEAGKLADVVAVPGNPIADITVTERPVFVMKDGVVVRRGAVR | 20.53 | 30.87 U/g | – | 65-75 °C
368 (protein, exemplary polypeptide) MTTPTRILTAVLSLLAANACAADAAPATPHTVVLRAARMFDGASGKLVERPQLTIVGNKIVRIAQADKADVPAGAEVIDLGDATLLPGFIDAHVHLSGQGSDNWYGDFFDNMMRFPAEQALYGAYYARITLEAGFTSVRDVGSTDWVALGLRNAIDAGKVPGPRMLVSNYAVGSTGGHADQDPIPPHKLPLAGPLQGVCNGPEECRAAVRYQIKYGANVIKFMPSGGVLSLSDPVDAPELSQDEMNAVIGESHAWGRKVAAHAPGDKAAKMAVAAGVDSIEHGSFIEDDTLRAMKAKGVYLVPTISAIAHVEEKIATFPPVIAEKGRAAAAHLRQTFRHAVQIGVPIALGTDAGVGAHGTNAREFRYMVENGLSPAQSLLAGTSNAARLLGTIDRVGTLEAGKLADVVAVPGNPIADITVTERPVFVMKDGVVVRRGAVR | 3.70 | 15.10 U/g | – | 68 °C
20 (protein, polypeptide 6) MTTRFRILTAVLSLLAASACAADAAPATPHTVVLRAARMFDGASGKLVERPQLTIVGNKIVRIAQADKAEVPAGAEVIDLGDSTLLPGFIDAHVHLSGQGSDNWYGDFFDNMMRFPAEQALYGAYYARITLEAGFTSVRDLGSTDWVALGLRNAIDAGKVPGPRMLVSNYAVGSTGGHADQDPIPPHKLPLAGPLQGVCNGPEECRAAVRYQIKYGANVIKFMPSGGVLSLSDPVDAPELSQDEMNAVIGESHAWGRKVAAHAHGDKAAKMAVAAGVDSIEHGSFIEDDTLRAMKAKNVYLVPTISAIAHVEEKIGTFPPVIAEKGRAAAAHLRQTFRHAVQIGVPIALGTDAGVGAHGTNAREFRYMVENGLTPAQSLLAGTSNAARLLGTIDKVGTLEAGKLADVVAVPGNPIADITVTERPVFVMKDGVVVRRGAVR | 49.73 | 100.52 U/g | – | <45 °C
22 (protein, polypeptide 8) MQYDVAIKNGNVFTGTEFIGKMNIYISNGKISKVSKEDLNAKQEIDAKDMLVMPGLIDAHMHISGLKGGSLLKIMFEKPEYRALRATKWLEKLLLAGFTTVRDCGEPISISLKRAVNEGYIKGPKIIAAGKPITQTFGHGEFSHDIPLEFSISLGFSEICDGTESCIHAARKVLRDGSDFIKIFATGGVLSQRDRPDMPQLSFDEIRAIVNEAEKAGTYVAAHAHGDKGARIAIEAGIKTLEHGSLLKEDTLKLMLEKNISLTPTLTITEIIYKYGKTIGVDEWGLEKIVEVRENLHKVLRKAKELGITIITGTDMGFETGLEDYDIGKNWTEILLLTEVGGLSNEEALRAATYNSAKALGLNSGLIDEGKDADIIVIDGNPLENIKDVSKVVHVIKQGKLEVLDGKIINNY | 0.66 | 0.79 U/g | – | >95 °C
19 (protein, polypeptide 5) MLSLLAANACVADAAPAASRTIVLRAARMFDGASGKLVEHPQLTIVGNKIVRIAQSDNAEVPASAEVIDLGDATLLPGFIDAHVHLSGQSSDNWYGDFFDNMMRFPAEQALYGAYYACITLEAGFTSVRDLGSTDWVALGLRNAIDAGKVPGPRMLVSNYAVGSTGGHADQDPIPPHRLPLAGPLQGVCNGPEECRAAVRYQIKYGANVIKFMPSGGVLSLSDPVDAPELSQDEMNAVIGESHAWGRKVAAHAHGDKAAKMAVAAGVDSIEHGSFIEDDTLRAMKAKNVYLVPTISAIAHVEEKIATFPPVIAEKGRAAAAHSRQTFRHAVQIGVPIALGTDAGVGAHGTNAREFRYMVENGLTPVQSLLAGTANAARLLGIIDRVGTLEAGKLADIVAVPGNPVADITVTERPVFVMKDGVVVRRGAVR | 8.72 | 10.91 U/g | – | 65 °C
SEQ ID NO: 336: another exemplary OTA-hydrolyzing polypeptide, amidohydrolase family; mature, processed species of SEQ ID NO: 337 (protein, exemplary polypeptide) VPAPPRPAVLKAARIFDSVSGHLEEPGLVVVAGAKIQAVGSDARIPDNAQVIDLGDATLMPGFIDAHVHLSSEMSDKWYEDWYKSMVRFPAEQALYGAHYAKATLEAGITTVRDLGSSDYISLGLRNAIKAGQIPGPRMLVANYAIGSTGGHADQDPVPPQRLAPAGPIQGVCNGPDECRAAVRYQLKYGADVIKFMPSGGVLSLSDPVDTPELTQEEMNAIVSEAHAWKRKVAAHCHGDRAAKMAIAAGVDSIEHGTFLQDDTLQEMKDKHIYLVPTLSAGYWVGLKADTYPPVIAEKARAASRQMQKMFQRAVKIGVPIAMGTDAGVEPHGQNAREFSLMTTNGLPPAQALLAATAKGADLLGISDQTGTLQPGKYADIVAVGGNPLLDIKATEHPLLVMKEGVIYVGGK | ~22 | approximately 40 U/g | 90-95 °C | –
78 (protein, exemplary polypeptide) MTTRTRILTAFLSLLAANACAADAAPAAPHTVVLRAARMFDGASGKLVDHPQLTIVGNKIVRIAQGDKAEVPAGAEVVDLGDATLLPGFIDAHVHLSGQSSDNWYGDFFDNMMRFPAEQALYGAYYARITLEAGFTSVRDVGSTDWVALGLRNAIDAGKVPGPRMLVSNYAVGSTGGHADQDPIPPHKLPLAGPLQGVCNGPEECRAAVRYQIKYGANVIKFMPSGGVLSLSDPVDAPELSQDEMNAVIGESHAWGRKVAAHAHGDKAAKMAVAAGVDSIEHGSFIEDDTLRAMKAKNVYLVPTISGIAHTEEKIGTFPPVIAEKGRAAAAHLRQTFRHAVQIGVPIALGTDAGVGAHGSNAREFRYMVENGLTPAQALLAGTANAARLLGTFDRVGTLEAGKLADVVAVPGNPIADITVTERPLFVMKDGVVVRRDAVR | – | – | – | 68.8-70.7 °C
79 (protein, exemplary polypeptide) MTTRTRILTAFLSLLAANACAADAAPAAPHTVVLRAARMFDGASGKLVDHPQLTIVGNKIVRIAQGDKAEVPAGAEVVDLGDATLLPGFIDAHVHLSGQSSDNWYGDFFDNMMRFPAEQALYGAYYARITLEAGFTSVRDVGSTDWVALGLRNAIDAGKVPGPRMLVSNYAVGSTGGHADQDPIPPHKLPLAGPLQGVCNGPEECRAAVRYQIKYGANVIKFMPSGGVLSLSDPVDAPELSQDEMNAVIGESHAWGRKVAAHAHGDKAAKMAVAAGVDSIEHGSFIEDDTLRAMKAKNVYLVPTISGIAHVEEKIGTFPPVIAEKGRAAAAHLRQTFRHAVQIGVPIALGTDAGTGAHGSNAREFRYMVENGLTPAQALLAGTANAARLLGTFDRVGTLEAGKLADVVAVPGNPIADITVTERPLFVMKDGVVVRRDAVR | – | – | – | 70.7-72.6 °C
